For data set [1], the target named is T1, Pif1p (yeast, UniProt P07271 40-859).
T1 sequence: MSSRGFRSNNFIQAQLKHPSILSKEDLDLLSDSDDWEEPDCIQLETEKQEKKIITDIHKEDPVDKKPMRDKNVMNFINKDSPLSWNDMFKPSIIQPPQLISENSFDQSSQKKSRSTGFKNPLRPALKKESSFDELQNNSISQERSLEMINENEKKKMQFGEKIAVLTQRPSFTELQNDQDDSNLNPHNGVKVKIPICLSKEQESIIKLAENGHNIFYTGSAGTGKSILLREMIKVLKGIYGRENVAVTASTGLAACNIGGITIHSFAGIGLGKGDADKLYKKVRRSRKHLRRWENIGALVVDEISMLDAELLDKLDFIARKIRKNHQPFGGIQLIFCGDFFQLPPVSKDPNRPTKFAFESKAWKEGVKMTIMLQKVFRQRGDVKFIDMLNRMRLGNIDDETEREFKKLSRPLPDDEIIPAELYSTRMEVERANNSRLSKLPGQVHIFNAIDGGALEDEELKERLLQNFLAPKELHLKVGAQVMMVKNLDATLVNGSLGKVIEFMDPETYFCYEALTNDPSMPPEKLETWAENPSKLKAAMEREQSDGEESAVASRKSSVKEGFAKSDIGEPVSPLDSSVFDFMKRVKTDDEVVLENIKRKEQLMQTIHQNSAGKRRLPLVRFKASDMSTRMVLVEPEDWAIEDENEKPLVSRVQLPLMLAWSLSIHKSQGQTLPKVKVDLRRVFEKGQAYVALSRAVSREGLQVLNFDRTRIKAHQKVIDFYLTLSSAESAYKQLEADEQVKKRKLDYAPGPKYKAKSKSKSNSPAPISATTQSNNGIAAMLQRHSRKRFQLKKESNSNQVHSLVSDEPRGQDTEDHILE
Kind of data set: fluorescence anisotropy. Background: Fluorescence polarisation rises when a labelled molecule tumbles more slowly, as on binding a larger partner.

Data set [2] addresses T1, Pif1p. Kind of data set: fluorescence anisotropy. This is another data set of the same source.

Like-named read-outs stand apart in the source and are kept apart here.

Consider GTGTGTGTGGTG (ssDNA) [FAM-GR12], for which the Kd (usually the constant that tells how readily two partners part at equilibrium) in the data set with Pif1p [1] was 8.7 nM.
TTTTTTTTTTTT (ssDNA) [FAM-T12]: in the data set with Pif1p [2], the affinity, expressed as Kd, was 25.2 nM.

(Values after paper PMC5041479.)
